Assay results reported in patent publication US20220040297A1 (Chugai, published 2022).

B1: GLS3000 Q27L (antibody, name in Kabat numbering, V domains shown)
VH: QVQLVESGGGVVQPGRSLRLSCAASGFTFSNAWMHWVRQAPGKGLEWVAQIKAKSNNYATYYAESVKGRFTISRDDSKNSLYLQMNSLKTEDTAVYYCRYVHYGAYYGVDAWGQGTTVTVSS
VL: DIVMTQSPLSLPVTPGEPASISCRSSLSLVHSNRNTYLHWYQQKPGQAPRLLIYKVSNRFSGVPDRFSGSGSGTDFTLKISRVEAEDVGVYYCGQGTQVPYTFGQGTKLEIK
notes: one-arm format as m2
B2: GLS3000 Q90E (antibody, name in Kabat numbering, V domains shown)
VH: QVQLVESGGGVVQPGRSLRLSCAASGFTFSNAWMHWVRQAPGKGLEWVAQIKAKSNNYATYYAESVKGRFTISRDDSKNSLYLQMNSLKTEDTAVYYCRYVHYGAYYGVDAWGQGTTVTVSS
VL: DIVMTQSPLSLPVTPGEPASISCRSSQSLVHSNRNTYLHWYQQKPGQAPRLLIYKVSNRFSGVPDRFSGSGSGTDFTLKISRVEAEDVGVYYCGEGTQVPYTFGQGTKLEIK
notes: one-arm format as m2
B3: GLS3000 Q27P (antibody, name in Kabat numbering, V domains shown)
VH: QVQLVESGGGVVQPGRSLRLSCAASGFTFSNAWMHWVRQAPGKGLEWVAQIKAKSNNYATYYAESVKGRFTISRDDSKNSLYLQMNSLKTEDTAVYYCRYVHYGAYYGVDAWGQGTTVTVSS
VL: DIVMTQSPLSLPVTPGEPASISCRSSPSLVHSNRNTYLHWYQQKPGQAPRLLIYKVSNRFSGVPDRFSGSGSGTDFTLKISRVEAEDVGVYYCGQGTQVPYTFGQGTKLEIK
notes: one-arm format as m2
B4: GLS3000 Q93E (antibody, name in Kabat numbering, V domains shown)
VH: QVQLVESGGGVVQPGRSLRLSCAASGFTFSNAWMHWVRQAPGKGLEWVAQIKAKSNNYATYYAESVKGRFTISRDDSKNSLYLQMNSLKTEDTAVYYCRYVHYGAYYGVDAWGQGTTVTVSS
VL: DIVMTQSPLSLPVTPGEPASISCRSSQSLVHSNRNTYLHWYQQKPGQAPRLLIYKVSNRFSGVPDRFSGSGSGTDFTLKISRVEAEDVGVYYCGQGTEVPYTFGQGTKLEIK
notes: one-arm format as m2
B5: GLS3000 Q90Y (antibody, name in Kabat numbering, V domains shown)
VH: QVQLVESGGGVVQPGRSLRLSCAASGFTFSNAWMHWVRQAPGKGLEWVAQIKAKSNNYATYYAESVKGRFTISRDDSKNSLYLQMNSLKTEDTAVYYCRYVHYGAYYGVDAWGQGTTVTVSS
VL: DIVMTQSPLSLPVTPGEPASISCRSSQSLVHSNRNTYLHWYQQKPGQAPRLLIYKVSNRFSGVPDRFSGSGSGTDFTLKISRVEAEDVGVYYCGYGTQVPYTFGQGTKLEIK
notes: one-arm format as m2
B6: GLS3000 R24E (antibody, name in Kabat numbering, V domains shown)
VH: QVQLVESGGGVVQPGRSLRLSCAASGFTFSNAWMHWVRQAPGKGLEWVAQIKAKSNNYATYYAESVKGRFTISRDDSKNSLYLQMNSLKTEDTAVYYCRYVHYGAYYGVDAWGQGTTVTVSS
VL: DIVMTQSPLSLPVTPGEPASISCESSQSLVHSNRNTYLHWYQQKPGQAPRLLIYKVSNRFSGVPDRFSGSGSGTDFTLKISRVEAEDVGVYYCGQGTQVPYTFGQGTKLEIK
notes: one-arm format as m2
B7: GLS3000 R24A (antibody, name in Kabat numbering, V domains shown)
VH: QVQLVESGGGVVQPGRSLRLSCAASGFTFSNAWMHWVRQAPGKGLEWVAQIKAKSNNYATYYAESVKGRFTISRDDSKNSLYLQMNSLKTEDTAVYYCRYVHYGAYYGVDAWGQGTTVTVSS
VL: DIVMTQSPLSLPVTPGEPASISCASSQSLVHSNRNTYLHWYQQKPGQAPRLLIYKVSNRFSGVPDRFSGSGSGTDFTLKISRVEAEDVGVYYCGQGTQVPYTFGQGTKLEIK
notes: one-arm format as m2
B8: GLS3000 Q90S (antibody, name in Kabat numbering, V domains shown)
VH: QVQLVESGGGVVQPGRSLRLSCAASGFTFSNAWMHWVRQAPGKGLEWVAQIKAKSNNYATYYAESVKGRFTISRDDSKNSLYLQMNSLKTEDTAVYYCRYVHYGAYYGVDAWGQGTTVTVSS
VL: DIVMTQSPLSLPVTPGEPASISCRSSQSLVHSNRNTYLHWYQQKPGQAPRLLIYKVSNRFSGVPDRFSGSGSGTDFTLKISRVEAEDVGVYYCGSGTQVPYTFGQGTKLEIK
notes: one-arm format as m2
B9: GLS3000 Q27R (antibody, name in Kabat numbering, V domains shown)
VH: QVQLVESGGGVVQPGRSLRLSCAASGFTFSNAWMHWVRQAPGKGLEWVAQIKAKSNNYATYYAESVKGRFTISRDDSKNSLYLQMNSLKTEDTAVYYCRYVHYGAYYGVDAWGQGTTVTVSS
VL: DIVMTQSPLSLPVTPGEPASISCRSSRSLVHSNRNTYLHWYQQKPGQAPRLLIYKVSNRFSGVPDRFSGSGSGTDFTLKISRVEAEDVGVYYCGQGTQVPYTFGQGTKLEIK
notes: one-arm format as m2
B10: GLS3000 Q93P (antibody, name in Kabat numbering, V domains shown)
VH: QVQLVESGGGVVQPGRSLRLSCAASGFTFSNAWMHWVRQAPGKGLEWVAQIKAKSNNYATYYAESVKGRFTISRDDSKNSLYLQMNSLKTEDTAVYYCRYVHYGAYYGVDAWGQGTTVTVSS
VL: DIVMTQSPLSLPVTPGEPASISCRSSQSLVHSNRNTYLHWYQQKPGQAPRLLIYKVSNRFSGVPDRFSGSGSGTDFTLKISRVEAEDVGVYYCGQGTPVPYTFGQGTKLEIK
notes: one-arm format as m2
B11: GLS3000 Q93A (antibody, name in Kabat numbering, V domains shown)
VH: QVQLVESGGGVVQPGRSLRLSCAASGFTFSNAWMHWVRQAPGKGLEWVAQIKAKSNNYATYYAESVKGRFTISRDDSKNSLYLQMNSLKTEDTAVYYCRYVHYGAYYGVDAWGQGTTVTVSS
VL: DIVMTQSPLSLPVTPGEPASISCRSSQSLVHSNRNTYLHWYQQKPGQAPRLLIYKVSNRFSGVPDRFSGSGSGTDFTLKISRVEAEDVGVYYCGQGTAVPYTFGQGTKLEIK
notes: one-arm format as m2
B12: GLS3000 Q90D (antibody, name in Kabat numbering, V domains shown)
VH: QVQLVESGGGVVQPGRSLRLSCAASGFTFSNAWMHWVRQAPGKGLEWVAQIKAKSNNYATYYAESVKGRFTISRDDSKNSLYLQMNSLKTEDTAVYYCRYVHYGAYYGVDAWGQGTTVTVSS
VL: DIVMTQSPLSLPVTPGEPASISCRSSQSLVHSNRNTYLHWYQQKPGQAPRLLIYKVSNRFSGVPDRFSGSGSGTDFTLKISRVEAEDVGVYYCGDGTQVPYTFGQGTKLEIK
notes: one-arm format as m2
B13: GLS3000 Q90P (antibody, name in Kabat numbering, V domains shown)
VH: QVQLVESGGGVVQPGRSLRLSCAASGFTFSNAWMHWVRQAPGKGLEWVAQIKAKSNNYATYYAESVKGRFTISRDDSKNSLYLQMNSLKTEDTAVYYCRYVHYGAYYGVDAWGQGTTVTVSS
VL: DIVMTQSPLSLPVTPGEPASISCRSSQSLVHSNRNTYLHWYQQKPGQAPRLLIYKVSNRFSGVPDRFSGSGSGTDFTLKISRVEAEDVGVYYCGPGTQVPYTFGQGTKLEIK
notes: one-arm format as m2
B14: GLS3000 Q93R (antibody, name in Kabat numbering, V domains shown)
VH: QVQLVESGGGVVQPGRSLRLSCAASGFTFSNAWMHWVRQAPGKGLEWVAQIKAKSNNYATYYAESVKGRFTISRDDSKNSLYLQMNSLKTEDTAVYYCRYVHYGAYYGVDAWGQGTTVTVSS
VL: DIVMTQSPLSLPVTPGEPASISCRSSQSLVHSNRNTYLHWYQQKPGQAPRLLIYKVSNRFSGVPDRFSGSGSGTDFTLKISRVEAEDVGVYYCGQGTRVPYTFGQGTKLEIK
notes: one-arm format as m2
B15: GLS3000 Q90A (antibody, name in Kabat numbering, V domains shown)
VH: QVQLVESGGGVVQPGRSLRLSCAASGFTFSNAWMHWVRQAPGKGLEWVAQIKAKSNNYATYYAESVKGRFTISRDDSKNSLYLQMNSLKTEDTAVYYCRYVHYGAYYGVDAWGQGTTVTVSS
VL: DIVMTQSPLSLPVTPGEPASISCRSSQSLVHSNRNTYLHWYQQKPGQAPRLLIYKVSNRFSGVPDRFSGSGSGTDFTLKISRVEAEDVGVYYCGAGTQVPYTFGQGTKLEIK
notes: one-arm format as m2
B16: GLS3000 R24D (antibody, name in Kabat numbering, V domains shown)
VH: QVQLVESGGGVVQPGRSLRLSCAASGFTFSNAWMHWVRQAPGKGLEWVAQIKAKSNNYATYYAESVKGRFTISRDDSKNSLYLQMNSLKTEDTAVYYCRYVHYGAYYGVDAWGQGTTVTVSS
VL: DIVMTQSPLSLPVTPGEPASISCDSSQSLVHSNRNTYLHWYQQKPGQAPRLLIYKVSNRFSGVPDRFSGSGSGTDFTLKISRVEAEDVGVYYCGQGTQVPYTFGQGTKLEIK
notes: one-arm format as m2
B17: GLS3000 Q93D (antibody, name in Kabat numbering, V domains shown)
VH: QVQLVESGGGVVQPGRSLRLSCAASGFTFSNAWMHWVRQAPGKGLEWVAQIKAKSNNYATYYAESVKGRFTISRDDSKNSLYLQMNSLKTEDTAVYYCRYVHYGAYYGVDAWGQGTTVTVSS
VL: DIVMTQSPLSLPVTPGEPASISCRSSQSLVHSNRNTYLHWYQQKPGQAPRLLIYKVSNRFSGVPDRFSGSGSGTDFTLKISRVEAEDVGVYYCGQGTDVPYTFGQGTKLEIK
notes: one-arm format as m2
B18: GLS3000 Q93Y (antibody, name in Kabat numbering, V domains shown)
VH: QVQLVESGGGVVQPGRSLRLSCAASGFTFSNAWMHWVRQAPGKGLEWVAQIKAKSNNYATYYAESVKGRFTISRDDSKNSLYLQMNSLKTEDTAVYYCRYVHYGAYYGVDAWGQGTTVTVSS
VL: DIVMTQSPLSLPVTPGEPASISCRSSQSLVHSNRNTYLHWYQQKPGQAPRLLIYKVSNRFSGVPDRFSGSGSGTDFTLKISRVEAEDVGVYYCGQGTYVPYTFGQGTKLEIK
notes: one-arm format as m2
B19: GLS3000 R24G (antibody, name in Kabat numbering, V domains shown)
VH: QVQLVESGGGVVQPGRSLRLSCAASGFTFSNAWMHWVRQAPGKGLEWVAQIKAKSNNYATYYAESVKGRFTISRDDSKNSLYLQMNSLKTEDTAVYYCRYVHYGAYYGVDAWGQGTTVTVSS
VL: DIVMTQSPLSLPVTPGEPASISCGSSQSLVHSNRNTYLHWYQQKPGQAPRLLIYKVSNRFSGVPDRFSGSGSGTDFTLKISRVEAEDVGVYYCGQGTQVPYTFGQGTKLEIK
notes: one-arm format as m2
B20: GLS3000 R24P (antibody, name in Kabat numbering, V domains shown)
VH: QVQLVESGGGVVQPGRSLRLSCAASGFTFSNAWMHWVRQAPGKGLEWVAQIKAKSNNYATYYAESVKGRFTISRDDSKNSLYLQMNSLKTEDTAVYYCRYVHYGAYYGVDAWGQGTTVTVSS
VL: DIVMTQSPLSLPVTPGEPASISCPSSQSLVHSNRNTYLHWYQQKPGQAPRLLIYKVSNRFSGVPDRFSGSGSGTDFTLKISRVEAEDVGVYYCGQGTQVPYTFGQGTKLEIK
notes: one-arm format as m2
B21: GLS3000 Q93S (antibody, name in Kabat numbering, V domains shown)
VH: QVQLVESGGGVVQPGRSLRLSCAASGFTFSNAWMHWVRQAPGKGLEWVAQIKAKSNNYATYYAESVKGRFTISRDDSKNSLYLQMNSLKTEDTAVYYCRYVHYGAYYGVDAWGQGTTVTVSS
VL: DIVMTQSPLSLPVTPGEPASISCRSSQSLVHSNRNTYLHWYQQKPGQAPRLLIYKVSNRFSGVPDRFSGSGSGTDFTLKISRVEAEDVGVYYCGQGTSVPYTFGQGTKLEIK
notes: one-arm format as m2

What follows are binders tested against CD3ε homodimer protein (human, UniProt P07766 23-126, limits assumed) (assay: SPR, immobilized CD3ε homodimer;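 also: biacore T200 surface plasmon resonance at 25 °C, antibody variants flowed as analytes over amine-coupled CD3ε homodimer on a CM4 chip, variant binding amount divided by that of GLS3000 antibody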).
Chain of CD3ε homodimer protein (P07766 23-126 limits assumed): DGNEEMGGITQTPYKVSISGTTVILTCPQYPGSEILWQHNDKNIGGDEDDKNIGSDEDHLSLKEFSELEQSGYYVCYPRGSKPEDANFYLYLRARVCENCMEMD

First: B1
Second: B2
The “ratio of amounts bound (vs GLS3000)” value of the first is higher: 0.92 for the first, 0.85 for the second.

Compared with B3, B4 is higher in “ratio of amounts bound (vs GLS3000)” value: 0.29 for the first, 0.75 for the second.

Going from B5 to B6, the “ratio of amounts bound (vs GLS3000)” value rises from 0.17 to 0.83.

Compared with B7, B8 is lower in “ratio of amounts bound (vs GLS3000)” value: 0.86 for the first, 0.73 for the second.

Going from B9 to B10, the “ratio of amounts bound (vs GLS3000)” value falls from 1.19 to 0.25.

Compared with B11, B12 is lower in “ratio of amounts bound (vs GLS3000)” value: 0.85 for the first, 0.19 for the second.

Compared with B13, B14 is higher in “ratio of amounts bound (vs GLS3000)” value: 0.27 for the first, 1.13 for the second.

Going from B15 to B16, the “ratio of amounts bound (vs GLS3000)” value rises from 0.5 to 0.75.

Compared with B17, B18 is higher in “ratio of amounts bound (vs GLS3000)” value: 0.72 for the first, 0.87 for the second.

First: B19
Second: B20
The “ratio of amounts bound (vs GLS3000)” value of the first is higher: 0.89 for the first, 0.7 for the second.

B21 was tested, and the “ratio of amounts bound (vs GLS3000)” value was 0.96.
